The target of the test is CaMKIIα (UniProt P11275 1-478). Description: fluorescence polarisation. (In general: In fluorescence polarisation assays a small probe gives low polarisation when free and higher when bound to something large.)

Drawing on publication PMC7031110 (Cell, 2014), this text covers Kd for one molecule.

Sequence of CaMKIIα (P11275 whole entry): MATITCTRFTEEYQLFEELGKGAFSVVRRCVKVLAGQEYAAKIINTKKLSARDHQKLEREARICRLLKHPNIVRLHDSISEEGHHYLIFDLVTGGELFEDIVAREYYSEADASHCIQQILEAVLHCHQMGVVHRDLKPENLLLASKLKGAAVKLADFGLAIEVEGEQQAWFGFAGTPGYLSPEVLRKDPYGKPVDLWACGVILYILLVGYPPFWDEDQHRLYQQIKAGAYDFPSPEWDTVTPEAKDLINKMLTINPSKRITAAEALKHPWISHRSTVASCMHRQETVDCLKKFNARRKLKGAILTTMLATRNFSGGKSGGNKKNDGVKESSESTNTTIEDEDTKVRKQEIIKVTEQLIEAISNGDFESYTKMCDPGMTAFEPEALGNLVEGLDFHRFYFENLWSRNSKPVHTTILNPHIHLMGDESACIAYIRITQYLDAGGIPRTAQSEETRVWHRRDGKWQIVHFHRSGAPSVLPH

In turn, TVGKFYATFLIQEYFR [IQ peptide TVGKFYATFLIQEYFR of Cav1.2/Cav1.3] had a Kd of 31 ± 7 nM.

The term Kd denotes a measure of binding affinity in units of concentration. A low value points to tighter binding.
